Source: US20240209114A1 (JIANGSU HENGRUI PHARMACEUTICALS, published 2024)

Columns and labels:
MASP2 in human serum [1] = target: T1, MASP2 in human serum (human, UniProt O00187 16-686); experiment: cell-based or functional assay
[2] = target: Murine MASP2A (S632A) protein (murine, UniProt Q91WP0 16-685); experiment: SPR (Biacore 8K), antibody captured on anti-human Fc chip, antigen as analyte, 1:1 fit
Description: The binding properties of the anti-MASP2 antibodies were determined by the method of Biacore. […] An anti-human Fc IgG capture chip was used to capture the antibodies, then antigens with different concentrations were used as a mobile phase for the determination, and finally curve fitting was performed according to a 1:1 mode to obtain affinity values.

MASP2 in human serum [3] = target: T1, MASP2 in human serum; experiment: cell-based or functional assay; remark: listed apart in the source
MASP2 in monkey serum = MASP2 in monkey serum (monkey); experiment: cell-based or functional assay
MASP2 in mouse serum = MASP2 in mouse serum (mouse, UniProt Q91WP0 20-685); experiment: cell-based or functional assay
Chain of MASP2 in mouse serum (Q91WP0 20-685 limits assumed): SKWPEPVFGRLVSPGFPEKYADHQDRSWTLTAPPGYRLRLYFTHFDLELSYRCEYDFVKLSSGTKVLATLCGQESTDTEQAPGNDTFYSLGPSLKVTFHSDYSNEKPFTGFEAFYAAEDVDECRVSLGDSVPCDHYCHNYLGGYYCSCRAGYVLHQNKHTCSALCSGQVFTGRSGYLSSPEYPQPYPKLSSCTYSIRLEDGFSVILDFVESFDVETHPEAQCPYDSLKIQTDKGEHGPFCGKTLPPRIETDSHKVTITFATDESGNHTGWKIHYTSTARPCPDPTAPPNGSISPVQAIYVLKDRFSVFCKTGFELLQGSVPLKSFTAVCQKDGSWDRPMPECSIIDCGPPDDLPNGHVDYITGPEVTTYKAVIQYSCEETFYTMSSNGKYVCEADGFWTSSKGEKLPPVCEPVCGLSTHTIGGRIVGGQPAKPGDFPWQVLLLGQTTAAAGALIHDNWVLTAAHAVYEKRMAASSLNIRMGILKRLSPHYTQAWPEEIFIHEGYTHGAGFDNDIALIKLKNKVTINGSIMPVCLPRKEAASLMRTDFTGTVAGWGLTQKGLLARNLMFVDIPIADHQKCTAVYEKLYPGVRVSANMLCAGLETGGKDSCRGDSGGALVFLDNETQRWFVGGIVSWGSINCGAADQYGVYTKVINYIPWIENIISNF

Chain of Murine MASP2A (S632A) protein (Q91WP0 other isoform, or with tags, fused parts or gaps S632A S632A): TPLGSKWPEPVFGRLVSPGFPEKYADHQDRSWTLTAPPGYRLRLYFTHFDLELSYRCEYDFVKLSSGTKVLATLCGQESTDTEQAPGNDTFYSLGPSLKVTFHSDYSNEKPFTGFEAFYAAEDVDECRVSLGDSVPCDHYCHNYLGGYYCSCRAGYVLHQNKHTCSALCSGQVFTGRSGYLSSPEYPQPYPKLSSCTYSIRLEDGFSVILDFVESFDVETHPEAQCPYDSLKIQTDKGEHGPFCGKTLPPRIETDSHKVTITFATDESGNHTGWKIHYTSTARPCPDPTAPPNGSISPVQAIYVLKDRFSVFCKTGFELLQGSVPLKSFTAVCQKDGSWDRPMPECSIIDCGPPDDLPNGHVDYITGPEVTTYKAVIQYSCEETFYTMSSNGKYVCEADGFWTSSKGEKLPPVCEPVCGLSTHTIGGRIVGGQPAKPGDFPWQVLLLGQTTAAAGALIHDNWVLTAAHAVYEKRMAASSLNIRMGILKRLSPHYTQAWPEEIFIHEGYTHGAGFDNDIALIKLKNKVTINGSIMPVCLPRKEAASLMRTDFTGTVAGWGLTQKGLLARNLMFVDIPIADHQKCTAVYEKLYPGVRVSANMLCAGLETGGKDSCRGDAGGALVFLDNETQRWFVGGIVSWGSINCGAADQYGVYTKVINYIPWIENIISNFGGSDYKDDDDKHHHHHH
T1 sequence (O00187 16-686 limits assumed): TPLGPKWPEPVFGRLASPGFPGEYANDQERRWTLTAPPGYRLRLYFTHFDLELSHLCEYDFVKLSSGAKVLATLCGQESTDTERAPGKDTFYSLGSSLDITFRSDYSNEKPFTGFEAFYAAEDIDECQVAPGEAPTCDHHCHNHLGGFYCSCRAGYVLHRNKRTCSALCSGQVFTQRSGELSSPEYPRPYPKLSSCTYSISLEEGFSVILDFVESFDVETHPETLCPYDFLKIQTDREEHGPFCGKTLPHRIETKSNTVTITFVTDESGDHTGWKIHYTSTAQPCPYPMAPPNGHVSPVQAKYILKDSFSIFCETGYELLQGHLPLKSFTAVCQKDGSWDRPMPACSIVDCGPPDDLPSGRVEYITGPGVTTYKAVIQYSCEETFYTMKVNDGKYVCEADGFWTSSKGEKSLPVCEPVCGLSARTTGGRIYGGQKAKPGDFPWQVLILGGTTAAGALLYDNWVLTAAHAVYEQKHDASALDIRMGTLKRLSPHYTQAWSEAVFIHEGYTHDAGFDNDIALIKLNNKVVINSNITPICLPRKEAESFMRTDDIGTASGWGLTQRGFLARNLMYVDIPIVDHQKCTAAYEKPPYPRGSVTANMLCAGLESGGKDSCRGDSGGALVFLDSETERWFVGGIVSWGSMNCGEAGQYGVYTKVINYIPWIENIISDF

B1: 11165 (antibody, human IgG4 S228P, lambda, V domains shown)
VH: QVQLQESGPGLVKPSETLSLTCTVSGGSISSGEYFWGWIRQPPGKGLEWIGSIYYSGSTYYNPSLKSRVTISVDTSKNQFSLKLSSVTAADTAVYYCARSLKAARRDAFDIWGQGTTVTVSS
VL: QSVLTQPPSVSVSPGQTASITCSGHKLGDKYAYWYQQKPGQSPVLVIYQDTKRPSGIPERFSGFNSGNTATLTISGTQATDEADYYCQTWDSSTGVFGAGTKVTVLG
notes: Fully human antibody from phage display; Full-length human IgG4 (S228P), lambda light chain
With B1 the “IC50 (µg/mL), inhibition of the lectin pathway in 1% human serum (C4c deposition on mannan)” value (MASP2 in human serum [1]) was 0.499 µg/mL, the Kd [2] was 435 pM and the koff [2] was 0.00192 s⁻¹. For the same binder, the kon [2] was 4.41e+06 M⁻¹ s⁻¹, the “90% human serum IC50 (µg/mL), inhibition of the lectin pathway (C4c deposition on mannan)” value (MASP2 in human serum [3]) was 0.93 µg/mL and the “90% monkey serum IC50 (µg/mL), inhibition of the lectin pathway (C4c deposition on mannan)” value (MASP2 in monkey serum) was 21.1 µg/mL. The “90% mouse serum IC50 (µg/mL), inhibition of the lectin pathway (C4c deposition on mannan)” value (MASP2 in mouse serum) was 4.26 µg/mL.
